The results in this text go back to a protein production outcome set (Wang et al. 2014).

A short description of this series: label from the status in PepcDB records.

Turning to “MASATEDPVLERYFKGHKAAITSLDLSPNGKQLATASWDTFLMLWNFKPHARAYRYVGHKDVVTSVQFSPHGNLLASASRDRTVRLWIPDKRGKFSEFKAHTAPVRSVDFSADGQFLATASEDKSIKVWSMYRQRFLYSLYRHTHWVRCAKFSPDGRLIVSCSEDKTIKIWDTTNKQCVNNFSDSVGFANFVDFNPSGTCIASAGSDQTVKVWDVRVNKLLQHYQVHSGGVNCISFHPSGNYLITASSDGTLKILDLLEGRLIYTLQGHTGPVFTVSFSKGGELFASGGADTQVLLWRTNFDELHCKGLTKRNLKRLHFDSPPHLLDIYPRTPHPHEEKVETVEINPKLEVIDLQISTPPVMDILSFDSTTTTETSGRTLPDKGEEACGYFLNPSLMSPECLPTTTKKKTEDMSDLPCESQRSIPLAVTDALEHIMEQLNVLTQTVSILEQRLTLTEDKLKDCLENQQKLFSAVQQKS”, the protein production result was “failed”. Take “MASDINAKLRQKQYEAAVLEFAGDRKGYFVVASDDPQFASLLRQTLTKHLAIPGDAMSTVANPDHILRELKNVTMRRKTVLLFLERILEGRDTNLLVRQLKSAYPDLKIIVITGETERNRLVLLHEVGADNFITKPVSMNTLIEKMAFTIKPLGKLGQLIDQAREFVHQNLPEQGIKLCRQILELKPGSAAGYLVMGEAYQHLGKLDKARECYEEASRNAELYLEPLRRLADIHGEMGEPTEQLRYLERLDQLSPLNVERKVDMGAIHLELGNQEKADELFDTAVQQATREALSYIADISGRIAGIYNGRDPQRAEHFLRRALDAKGDMLDASDLDTFNRLGIALRRQGKWQEALTEYHKALRVAPEDENLFYNMGMACAEGRDFREARANMLKALTINPELPRRDPVMAYNIGLVFMRAGGREYAERCLNIALELDPGFTKAREALERLG”: the protein production result is “failed”. The same measure for “MASDREEFNLCGPTHLTTVDWGNEDHQRCVAACLVQGIYIVEQDRQLKREGTEALASPWWESFNFKLIRHLKDDADFSIFGGIFEYKSLQPDVVDSGVPRYVIAFRGTLTKADSITRDIELDIHIIRNGLHRTSRFEIAMQAVRSMADSVGASSFWLTGHSLGAAMALLAGKTMGKSGVYIKSLLFNPPYVSPPIERIANERVRHGIRFAGSLITAGLALSRTLKQTQQPQQQQLQLQNLTEDPLEALSSWLPNIHVNPGDHLCSEYIGFFEHRGNMEQIGYGAGIVERMAMQHSLGGLLMDAMGVSNAVEVEEPVHVIPSANLIVNKTISEDYKDAHGIHQWWRDDQDLVSHIYMYK”: “failed”; for “MASEHFDMWESRFSADGYLFGTAPNAFLASCHDLLPKQGRALAIADGEGRNGVFLAECGLSVLSVDFSPTAQAKAHKLAAERGVTIETRTADLLSWQWPGGFDVIAGIFFQFVEPEQRPQIFQQIRAALKPGALLLIEGYRPKQLAYKTGGPSRAENLYTRELLEQAFGDFDNLSIRERDSEIVEGAGHAGLSALIDLIGWKPKLEHHHHHH”: “not failed”. As for “MASEWNVAAERHSALHYLYRLGDAVLIAVCGIAMGALYFHDGIRSAAPVNGFLTMLCALGALLIFPAFGIYESWRGRSRAVLGLRIAAAWTLVFISGLLGAFLIHQIGAVSRVWSMGWFIGTGVMLALSRVVMFRMLANVRQQGINAKRVLIFGYGPLGREMYDRVQHFRDAGYRVVGVYDEESDAIPYDVTPLRQIEEVSGFVRDHGVREIWLTLPMAACRDLSGVVRQFRNEMIDIRWVPDVSSVELLGHRFSEFMGLPVIDLNSPPVSGITGVVKASFDRVFSLGVLVCLSPLLLLIAAMVKLSSPGPVLFRQQRLGIDGQPFNVYKFRTMRQHQDGGGVTQAVRGDPRVTRVGAFLRRTSLDELPQFINVLRGEMSVVGPRPHAMEHNELYKELIDRYMLRHRVKPGITGWAQINGLRGQTDTVEKMRKRIEFDIYYIQHWSFQLDLRIILRTALHGWTGTTAY”, the entry is “failed”. As for “MASFCNSWKRKHNEAIKLSEEIDGMILERSSLAETSSYARGHASYMRRKITILANGVQTLKNLLAESQGKSISAKEMSRCKDMVEDLRSKAYQMASALDMLKFSNIGSLLGQDDIMSRVIDMDNQEIVGFQRTTMKGKLKGVMHLKREALAMNMELGLQTRLIDRLDHHVDVSASDVEELQRSIDTGVCMTLLLSVVVVVFGLSEFVKFGRRRILG”, the entry is “failed”; as for “MASFPHPGSVTVCEINRDLITAQNLSDERAQETYGKVLGMVFSPVSFDSTPSSLQENEGQENGDKASGESKGLVATLQMKVADSLKQILQPTDVTLLSEIDLQGVSWHQGKHIIAFISGANQVTIRDYEDKDEKEPCILTSDSQRNVKALEWRPNGGKSLSIACRGGICIWAASYPGNMALVRSGGSALRGSLSRGSGTRWILVDFLRCQNDEQISALSWSPCGRYLASASYDSSSFTIWDVSQGAGTPIRRGLGGISMLKWSPTGDYFFAARFDGTFCLWETNTWTSEPWSLSSGSGSVTGAIWDPEGRFILISFSKSSTLGSVHFSSKPPSLDAHLLPVELPEIASLTGCEGIEKIAWDASGERLAVSYKGGDENYKGLIAIYDTRRTPIVSASLVGFIRGPGENPKALSFSFHDKFKQGPLLSVCWSTGFCCTYPLIFRSHVLP”, “failed”. In the case of “MASGKSIMGGLPPLKPGEKLPRLQTVIATSPENPAGDPNIRPQQAGEAAGKVIGGGLGVLLVTVCVLLLLGPVLWAPGWAGLRVARFLSGPWQPWLAGFAAFVAVAVLQTFLLIQRHPALRYPIVTLFSVLWVGGLWLEFNSPRHDWVTTAPTLQMPGPWSWALIISGSVVYAGIYLLALAPVGKSRWARRWQLLK”, the protein production entry is listed as “failed”. As for “MASGLFENDGIKDNKARDFFYSHSSLIVFFLLLLGFGYYLGKLLFGGSSLEVYLDLRDKHERLQQEITELQSKNVRLQKRLFELKELRPRD”, the entry is “failed”; as for “MASGLSEIGSTKMFDGYNKRYKHFSETLGCSMTFSIYFPPSASSSHKSPVLYWLSGLTCTDENFIIKSGAQRAASTHGIALVAPDTSPRGLNVEGEADSYDFGVGAGFYLNATQEKWKNWRMYDYVVKELPKLLSENFSQLDTTKASISGHSMGGHGALTIYLRNLDKYKSVSAFAPITNPINCAWGQKAFTNYLGDNKAAWEEYDATCLISKYNNLSATILIDQGENDQFYPDQLLPSKFEEACKKVNAPLLLRLHPGYDHSYYFIATFIEDHISHHAQALEL”, “failed”; as for “MASGMGVDENCVARFNELKIRKTVKWIVFKIENTKIVVEKDGKGNADEFRGALPANDCRFGVYDCGNKIQFVLWCPDNAPVKPRMTYASSKDALLKKLDGATAVALEAHEMGDLAALA”, “failed”. The same measure for “MASGNAGDTACLPAMVQAASLTAQQLLQQHWGYPAFRPGQAEIVEAIAQGRDCLIIWPTGGGKSLCFQVPALLRSGLTIVVTPLIALIENQVADLQARGIAAACLHSQMAPRDRKAVLQKLPQLKLLYLAPETLLSTPLWSRLTEPTIAIAGLILDEAHCLLQWGESFRPTYLRLGAIRPALVRLGKPSFPIAAFTATAYPQEVARLSQILQLQQPQRHQRDPYRSNLVLAVKTVWTPRQRQNQLLDFLAKHQGQSGLIYLRSRRDCETWADRLRNRGYRCAAYHAGVSDRERRQIEQAWQTGSLPFAVCSSAFGMGIDKRDVRWVAHVHPPLLLSEYLQEVGRGGRDQQRAQGLTLVSEPSGWLDPSDRDRWQGFQQATQQQWEAAQRQAQQLPASGDLRSLASSNELDLALAYLQRLGQLQWLDPFRYRRRAIPTPRPAPRLDLQPLRQFLYSRDCRWRSLLQSFGSNHPTTWRCGHCDRCQTTG”: “failed”; for “MASGSMSSYGSGSWTVKQNKAFERALAVYDQDTPDRWHNVARAVGGKTPEEAKRQYDLLVRDIESIENGHVPFPDYKTTTGNSNRGRLRDEEKRMRSMKLQ”: “failed”; for “MASHDHHHHHHDHEHDHEKSDGGEGKASWVGKDGKVYHSHDGLAPHSHEPIYSPGYFSRRAPPLHDRNFSERAFTVGIGGPVGTGKTALMLALCRFLRDKYSLAAVTNDIFTKEDGEFLVKNGALPEERIRAVETGGCPHAAIREDISINLGPLEELSNLFKADLLLCESGGDNLAANFSRELADYIIYIIDVSAGDKIPRKGGPGITQADLLVINKTDLAAAVGADLSVMERDSLRMRDGGPFVFAQVKHGLGVEEIVNHVMHSWEHATGKKRQ”: “not failed”. Regarding “MASHQEQSYKAGETRGKAQEKTGEAMGTMGDKTQAAKDKTQETAQSAQQKAHETAQSAKDKTSQAAQTTQERAQESKDKTGSYMSETGEAIKNKAHDAAEYTKETAEAGKEKTSGILGQTGEQVKQMAMGATDAVKHTLGLRTDEGNKEHVSSAPSTTTTTTTRETQRK”, the protein production entry is listed as “failed”. As for “MASILFFEKPGCQNNTRQKAWLELSGHTVDAVNILEYAWTKEELSLYLGENPISACFNPAAPEVKTGSMKPELLNKEDALDAMIKKPLLIRRPLLKIGNHYLQGFDTAVLRTIIS”, the entry is “failed”; as for “MASKPVDVMVVNFNTAGLLQPMFDALRRADSERLASYLVVDNASRDDSVQRMAQVCPEALLLSNKQNVGFGRANNQLLAHLKGKYALLLNTDAFVAADSLQKTLDYMDAHPECGVLGVRLEGRDGDLQPSCRYFPTPLNVFVGRTGLGRFFPGVKMVDDMNWDHASVRECDWLPGCFYLVRREVLDKVGLFDPRYFLYYEEVDHCKRVKEAGWKVVFYPHTTVVHIGGESSKSVAELEAASRQISSYQIESELLYFRKHHGVAGLALHMLLVTLGDLVLALKALLKRRGWGAIQACWRHCRATWSLLFKTRYASQPTR”, “failed”; as for “MASLLQGFEEVQLVKPVGKTVLTVTDSAIRFNKATAEALGFPAYVKVLINDKTRQIAVTPTTAKAGNAIKFSKPEGKQAASVSVKEATFIEAVKAYLTLPEAPEGEIAYQSVNGTAYPESKTVIFDVANATAGTMKLEHHHHHH”, “not failed”.

In the case of “MASLSELAVFIAVAEQGSFVGAGRVLGVSASAVGKRISRLEVDLGVRLLQRNTRSLALTAEGETVLSRGRSLLDEAESLRVVLERSSRQPGGVLRLSLPPIGGVLMAELAAFRQRYPEVALELDYSERNVDIIEEGFDAAIRVGAGDDGKLRSLALPGFRRLIVAAPDYLVRHGQPRSAAQLAEHQLIHYRSPNSGKLEAWPLVNAELPRALVCNSVHARLDFALQGQGIACLPDISIRRELEDGSLRPLLGSENGEKVVLRLLWPSSRGLSARMEAFLGFMRERSGAAPCENFKVRA”, the protein production result is reported as “failed”. The same measure for “MASLSYPKTTMQIQLGANLKPYHTFGIEQLAAQLVVAESIDDLKALYCSAEWASLPKLIIGKGSNMLFTCHYTGMIVVNRLNGIEHQQDDDYHRLHVAGGEDWPSLVSWCVEQGIGGLENLALIPGCAGSAPIQNIGAYGVEFKDVCDYVEYLCLETGTVKRLTMEECQFGYRDSIFKHQLYQKAVVTAVGLKFAKAWQPIIQYGPLKDLSSDCAIHDVYQRVCATRMEKLPDPAVMGNAGSFFKNPVISQQAFARLQIEHPDVVAYPAEQGVKVAAGWLIDQAGLKGHQIGGAKVHPKQALVIVNTGDASAQDVLMLAADIQQRVFNCYGIELEHEVRFIGESEETNLKQWMSEQA”: “not failed”; for “MASMDVEEFIGQNRQLADRVEAFRGFSESDKHWKGRREFIFRNMADFPEPQVDHLLALSMVWQNHVFMGCRYSSELLQRVMEMAEGIEVEDAPVFKTRDEIIRQQKQR”: “failed”; for “MASNMDREMILADFQACTGIENIDEAITLLEQNNWDLVAAINGVIPQENGILQSEYGGETIPGPAFN”: “failed”. For the sequence “MASNRCAVCKILNETCAPMCIYAPHFPSNDASFKVIIQIFGAVNVCNILDNLEFPEQREIAANCLRYAAEARIRNPISGCHDMILQYKNILNNVEQDIESAVNELGTYVGHDQVPKFYDLPMPDDFLMTPVSLDSFIAKIKSLNEVQKNQLMQLPTAADNAPMIMNSIFGKMEDKNLKDGHRADGASTSAGK”, the protein production result is “failed”. As to “MASNRGAGGSLYGGADPYRSREGLSTRNASGSEEIQLRIDPMHSDLDDEILGLHGQIAQEIGSEAKSQRDFLDELQMTLIRAQAGVKNNIRKLNLSIIRSGNNHIMHVVLFALLLFFILYMWSKMFKR”, the protein production result is “failed”.
